# Data from the supplement of paper PMC12042874.
# ± gives the uncertainty stated by the source.
# Experiment: amyloid nucleation score (Sup35N fusion, yeast selection) (log enrichment); library NNK1; higher = more nucleation; inactive = no reads after selection
# Method in brief: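 After 24 hours of induction with 100 μM copper sulfate, psi-negative yeast expressing peptides of 20 random codons fused to Sup35N were grown for 7 days at 30°C on medium lacking adenine and uracil. Input and output plasmid inserts were sequenced with Illumina, and sequences with under 100 input reads were discarded. Scores for nucleation are the DiMSum log enrichment of output over input reads, centred on the mode score of non-aggregating sequences.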
row,Substance,amyloid nucleation score
1,MSLDGD,0.868 ± 0.29
2,MSLYTDNWGNKGRTSLNYSS,0.455 ± 0.51
3,MSLYYPSFDQPITKRVRLFF,-0.82 ± 1.4
4,MSMMLTRIAHTLSESWRTHW,-0.09 ± 0.97
5,MSQAALLVLGNRFGNNDIVG,-0.078 ± 0.44
6,MSQDR,-0.061 ± 0.94
7,MSSRQVPGFLMIGSLFARCI,-0.639 ± 0.55
8,MSSVLFYYGFNTFEYSDMYM,-0.15 ± 0.33
9,MSSVNWYANDLLSVLGIGSR,-0.202 ± 1.2
10,MSYMCLNRYILVGYCWVQTT,0.312 ± 0.66
11,MTRVNLKDKHNVRILSFN,inactive
12,MTVSRNFDYAKLCEWRRVNR,-0.371 ± 0.37
13,MVCLVVSFGQCASTVFLFHL,1.83 ± 0.49
14,MVCTYNVRCIEMETRYPRSR,0.791 ± 0.97
15,MVDPRVTS,-0.86 ± 1.1
16,MVIHP,3.57 ± 0.087
17,MVIPFFLSSLLSL,-0.835 ± 0.7
18,MVKRRV,-0.232 ± 1.2
19,MVSDMLVKATVHPMYFMTLW,-0.34 ± 0.32
20,MVTDPWISTLSSFHLWGGFM,-0.318 ± 0.93
21,MVTEDEERMANLSWHESGAY,-1.07 ± 0.74
22,MVTGTSHPLQYMLSGSSTKY,-0.436 ± 0.45

row,Substance,amyloid nucleation score
1,MVVVIIYL,1.53 ± 0.35
2,MVYLGECCITFYSFNSYRVM,4.55 ± 0.053
3,MWGARLRVWPGYERLSAFNH,-0.552 ± 0.44
4,MWGPHCTRSTTTLVPRARKG,0.468 ± 0.46
5,MWSGDDCSFNDFCYVCDFCK,-0.1 ± 0.32
6,MYCFLAKDLRVTEKFWRRGS,-0.448 ± 0.64
7,MYINGWYWTDGFIVNYQWMG,0.626 ± 0.55
8,MYRMFRSFKFEWYCELWVLS,-0.125 ± 0.5
9,NADCVTMVYSKLVWLPVEDT,0.458 ± 0.57
10,NAFNHFYPTQPFLVQDCWRR,0.605 ± 0.72
11,NALILRGLVCLSWKLELTHF,-0.866 ± 1.9
12,NARWV,0.613 ± 0.38
13,NARYYYQSAIADVI,0.64 ± 0.29
14,NCECVFIPMKEPGFYR,-0.357 ± 0.63
15,NCIGMFAIDLTKDQFRGDFR,2.73 ± 0.31
16,NCLCIMSPCLLPCWEWVSYR,5.834 ± 0.055
17,NCLNAMVWSLLMLTDHLAPQ,-0.157 ± 0.72
18,NCRFRVVVRKSGTLLPVWVP,0.542 ± 1
19,NCVTELYDLRGILVRNLCSG,-0.044 ± 0.21
20,NCVTTNIGFN,0.124 ± 0.9
21,NCYSF,0.055 ± 0.29
22,NDEQAVQFNIGETGVSYCFL,0.162 ± 0.77

row,Substance,amyloid nucleation score
1,NDFLNSFLCPYYIIPDTGRI,-1.04 ± 0.44
2,NDFYVLNASFSSRHSYAIRH,1.1 ± 0.3
3,NDHNNLWVNFVGT,0.575 ± 0.6
4,NDNSVTILVCARVSTNGIFD,3.38 ± 0.11
5,NDVRYLLDMDLLASSADYFM,-0.732 ± 1.1
6,NEFKFKVRTKEFRFEVCLKY,inactive
7,NELMSYVWQDKPRKYRYLF,1.2 ± 0.13
8,NESGSARFSPVDSYGFGSGC,-0.894 ± 0.75
9,NEWVCLS,-0.179 ± 0.36
10,NFACVFTSTSRMCRH,3.85 ± 0.1
11,NFAYGVNYLSAVKGCFTFAR,-0.206 ± 1.5
12,NFDNYVLLPLALTC,inactive
13,NFGVSSNLCGGIWIYW,4.74 ± 0.074
14,NFIFVR,0.706 ± 0.53
15,NFIQID,inactive
16,NFLIDTYCVNSFNVTL,2.67 ± 0.17
17,NGFNKSRAQWFGSVSCSPEG,0.174 ± 1.5
18,NGFPTNELLFPALKVCNSRV,0.945 ± 1.1
19,NGIMKIEKYG,0.312 ± 0.79
20,NGKDFWMSGRYAYVSMHFDR,1.13 ± 0.31
21,NGLCLDDIVRLFVIITSVGP,0.821 ± 1.1
22,NGRCKYLRQNIFSVLLIMRR,0.324 ± 1

row,Substance,amyloid nucleation score
1,NHFFCGLGNYLSAVFIVIRK,-0.159 ± 1.4
2,NHLVG,0.526 ± 1.4
3,NHMFPMVVTYLWSCFIIGSV,2.42 ± 0.37
4,NIGVCQIFLDTGMGISVFLN,6.06 ± 0.08
5,NIGYSLAVMSAMMLLHFNFG,2.95 ± 0.082
6,NIINLHYKYLVADVWGLKMF,-0.008 ± 0.93
7,NIKEKG,0.635 ± 0.44
8,NILKNTLAFSVYLISLPLHV,1.82 ± 0.1
9,NINPHLLTISFHWLRPQLAP,-0.745 ± 1.7
10,NISCDRGMLG,inactive
11,NKFGQSAGYLSTFACAVGIG,0.595 ± 0.39
12,NKGALRLRFYGIFEVECVVE,1.09 ± 0.4
13,NKNMSNKFVSIMQKFFSIDG,2.72 ± 0.13
14,NKNSGSRHHHVTYQLTPGER,inactive
15,NKTMGMKSYFLGNIFYMYGW,5.215 ± 0.046
16,NKTVVLDHPHVCFPGSRSHL,inactive
17,NKYNSYKKNYPKRIDWSGLN,-0.983 ± 1.4
18,NKYQLHMILKGFQGSAYWSV,-0.453 ± 0.81
19,NLAGI,0.716 ± 0.88
